Source: the nanobody polyreactivity screen of Harvey et al. (2022)

Test: yeast display, Sf9 membrane polyspecificity reagent, FACS + sequencing; frameworks hold sequencing errors
Method in brief: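 A nanobody's polyreactivity label depends on the gate it was sorted from. Yeast display cells were stained with 10% biotinylated, detergent-solubilized Sf9 membrane reagent for 1 hour at 4 °C, enriched on streptavidin microbeads and sorted by FACS. The low and high (top ~1%) gates were set on anti-HA fluorescence for expression and streptavidin fluorescence for reagent binding.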

Sequence	polyreactivity (PSR sort gate)
QVQLVESGGGLVQAGGSLRLSCASSGFTFRSYAMGWYRQAPGKERELVAAIRWSGDSTYYADSVKGRFTISRDNAKNTVYLQMTSLKPEDTAVYYCAAGTYLRYGYWGQGTQVTVSS	high polyreactivity
QVQLVESGGGLVQAGGSLRLSCASSGFTFVYNAMGWYRHAPGKERELVAAITSGGNTYYADSVKGRFTISRDNAKNTVYLQMNSLIPEDTAVYYCAKRGYGRYYAYDYWGQGTQVTVSS	high polyreactivity
QVQLVESGGGLVQAGGSLRLSCASSGFTFWYYAMGWYRQAPGKERELVASISRTGGTTYYADSVKGRFTISRDNAKNTVYLQMNSLKPEDTAVYYCNARPKVYYREYDYWGQGTQVSVSS	high polyreactivity
QVQLVESGGGLVQAGGSLRLSCASSGFTFYYYAMGWYRQAPGKEMELVAAIDTSDGSTYYADSVKGRFTISRDNAKNTVYLQMNSLKPEDTAVYYCAAEVDWVPFLLDYWGQGTQVTVSS	low polyreactivity
QVQLVESGGGLVQAGGSLRLSCASSGFTSRYVMGWYRQAPGKEMELVASISRSGGSTYYADSVKGRFTISRDNAKNTVYLQMNSLKPEDTAVYYCAADATPTDMDYLGQGTQVTVSS	high polyreactivity
QVQLVESGGGLVQAGGSLRLSCASSGGTFTAYAMGWYSQAPGKERELVAAITTNGGRTYYADSVKGRFTISRDNAKNTVYLQMNSLKPEDTAVDYCNRVSLSRRWFLYDYWGQGTQVTVSS	high polyreactivity
QVQLVESGGGLVQAGGSLRLSCASSGIIFHYYAKGWYRQAPGKERELVATISWDGGNTYYADSVKGRFTISRDNAKNRVYLQMNSLKPEDTAVYYCNVYDKAPAYAYWGQGTQVTVSS	low polyreactivity
QVQLVESGGGLVQAGGSLRLSCASSGIIFYTYAMGWYRQAPGKERELDAAITQTSAPTYYADSVKGRFTISRDNAKNTVYLQMNSLNPEDTAVYYCAAVPSYRVQGGRMYYWGQGTQVTVSS	high polyreactivity
QVQLVESGGGLVQAGGSLRLSCASSGISFRRNAMGWYRQAPGKERELVAISTICGSTYYADSVNGRFTIARDNAKNTVYLQMNTLKPEDTAVYYCAAEGKSTGVYLDGGEGFAYDYWGQGTQVTVSS	low polyreactivity
QVQLVESGGGLVQAGGSLRLSCASSGITFDKYAMGWYRQAPGKERELVAAINRSGGSTYYADSVKGRFTISRDNAKNTVYLQINSLKPEDTAVYYCAAVKPPDYYYWGQGTQVTVSS	high polyreactivity
QVQLVESGGGLVQAGGSLRLSCASSGITFPGNAMGWYRQAPGKERELVAGISDGDSTNYADSVKGRFTISRDNAKNTVYLQMNSLKPEVTAVYYCNAQGTTETSGGGFFRGMDYWGQGTQVTVSS	low polyreactivity
QVQLVESGGGLVQAGGSLRLSCASSGITFPNYAMGWSRQAPGNERELVAAISSSGGSTYYADSVKGRFTISRDKAKNTGYLQMNSLKPEDTAVYYCATAINVYPRMDYGYWGQGTQVTVSS	low polyreactivity
QVQLVESGGGLVQAGGSLRLSCASSGLIFSIYAMGWYRQAPGKERELVAAIRWSGGSTYYADSVKGRFTISRDNAKNTVYLQMNSLKPEDTADYYCNADITVYVRIYQYNYWGQGTQVTVSS	low polyreactivity
QVQLVESGGGLVQAGGSLRLSCASSGLISRRNAMGWYRQAPGKERELVAAISTGSSTNYADSVKGRFTISRDNAKNTVYLQMNSLKPEDTAVYYCAATQYWWSTLGIRDDYWGQGTQVTVSS	low polyreactivity
QVQLVESGGGLVQAGGSLRLSCASSGLTFHFYTMGWYRQAPGKERELVASITSGGITYYADSVKGRFTISRDNAKNTVYLQMNSLKPEDTAVYYCAATYQFIYTDFDYWGQGTQVTVSS	high polyreactivity
QVQLVESGGGLVQAGGSLRLSCASSGLTFTPNAMGWYRQAPGKEREFVAAITWRGGRTYYADSVKGRFTISRDNAKNTVYFQMKSLNPEDTAVYYCAVTYRPTYQLDYWGQGTQVTVSS	high polyreactivity
QVQLVESGGGLVQAGGSLRLSCASSGNIFVPNAMGGYRQAPGKERELVAAIRRGGSTNYADSVKGRFTISRDNAQNTVDGQMNSLKPEDTAVYYCAKSRVSFTDLEGYYWGQGTQVTVSS	low polyreactivity
QVQLVESGGGLVQAGGSLRLSCASSGRIFGLYAMGWYRQAPGKERELVAAITLSGDGTDYADSVKGRFTISRDNAKNTVYLQMNSLKPEDTAVYYCAKVGQYWWNMDYWGQGTQVTVSS	low polyreactivity
QVQLVESGGGLVQAGGSLRLSCASSGRIFLVYAMGWYRQAPGKERELVAAISYSGGRTYYADSVKGRFTISRDNAKNTVYLQMNSLKPEDTAVYYCAAKRITYYGGGRFYYWGQGTQVTVSS	high polyreactivity
QVQLVESGGGLVQAGGSLRLSCASSGRIFLYNAMGWYRQAPGKERELVAVISYGGGTYYADSVKGRFTISRDNAKNTVYLQMISLKPEDSAVYYCAAEKYSSSRYWPYNYWGQGTQVTVSS	high polyreactivity
QVQLVESGGGLVQAGGSLRLSCASSGRNFTRNTMGWYRQAPGKERELVAAISGRGGSTYYADSVKGRFTISRDNAMKTVYLQMNSLKPEDTAVDYCAADGVYRGGYDYWGQGTQVTVSS	high polyreactivity
QVQLVESGGGLVQAGGSLRLSCASSGRSLSVYAMGRYRQAPGKERDLVADITWRGGSTYYADSVKGRFTISRDNAKNTVYLQMNSLKPEDTAVYYCAAADSTWFDWGNYWYYYWGQGTQVSVSS	low polyreactivity

Sequence	polyreactivity (PSR sort gate)
QVQLVESGGGLVQAGGSLRLSCASSGRTFLVNAMGSYRPAPGKERELVAAISQSGGSTYYADSVKGRFTISRDNAKNTVYLQMNCLKPVDTEVYYCAAELINDYYWGQGTQVSVSS	low polyreactivity
QVQLVESGGGLVQAGGSLRLSCASSGRTFRGYVMGWYRQAPGKERELVASISYSGGSTYYADSVKGRFTISRDNAKNTVYLQMNSLKPEDTAVYYCAARKGYDQYRWRYSQNNYWGQGTQVTVSS	high polyreactivity
QVQLVESGGGLVQAGGSLRLSCASSGRTFYYYAIGWYRQSPGKETELVAVIRSSGDSTYYADSVKGRFTISRDNAKNTVSLQMNSLKPEDNAVYYCAAEAPSRCYSWHPRYYFWGQGTQVTVSS	low polyreactivity
QVQLVESGGGLVQAGGSLRLSCASSGSIFFLYTMGWYRQAPGKERELVAAIDSGGSTNYADSVKGRFTISRDNAKNTVYLQMNSLKPEDTAVYYCNADGGYYYPYRGYHKYYYWGQGTQVTVSS	low polyreactivity
QVQLVESGGGLVQAGGSLRLSCASSGSIFYQNAMGWYRQAPGKEREFVAAIRSSGSSTYYADSVKGRFTISRDNAKNTVYLQMNSLKPEDTAVYYCAAPSSRGQGRNFDYWGQGSQVTVSS	high polyreactivity
QVQLVESGGGLVQAGGSLRLSCASSGSIFYRNTMGWYRQAPGKEREFVAAIRTSGGSTYYADSVKGRFTISRDNAKNTVYLQMNSLKPEDTAVYYCAAEYRYGWAYRKGGDYWGQGTQVTVSS	high polyreactivity
QVQLVESGGGLVQAGGSLRLSCASSGSIIVVYGMGWYRQAPGKERELVAAISGGITNYADSVKGRFTISRDNAMNTVYLQMNILIPEDTAVYYCATVDGAYQYTYDYWGQGTQVTVSS	low polyreactivity
QVQLVESGGGLVQAGGSLRLSCASSGSTFAYYVMGRYIHAPGKEWELVAAISRGGRTYYADSVKGRFTISRDNAKNTVYFQLNSLKPEDTAVYYCAAEGASLAKYDYCGQGTQVTVSS	low polyreactivity
QVQLVESGGGLVQAGGSLRLSCASSGSTFKRYAMGWYRQAPGKERELVAAITLSGGNTYYADSVKGRFTISRDTAKNTVYLQLNSLKPEDTAVYYCAARRYRGYDYWGQGTQVTVTS	high polyreactivity
QVQLVESGGGLVQAGGSLRLSCASSGSTFKYYAMGWYRQSPGKERELVAAISGTGGSTYYADSVKGRFTISRDNAKNTVYLQMNCLKPEDTAVYYCNTYPYIRYDYWGQGTQVTVSS	high polyreactivity
QVQLVESGGGLVQAGGSLRLSCASSGSTFPEYAMGWYRQAPGKERELVAVISFGDGNTYYADSVKGRFTISRDNAKNTVYLQMNSLKPEDTAVYYCNAADDSVDQSVRTLRQYEYWGQGTQVTVSS	low polyreactivity
QVQLVESGGGLVQAGGSLRLSCASSGSTFPSNAMGWYRQAPGKERELVAAISRSGGSTYYADSVKGRFTISRDTAKNTVYLQMNSLKPEDTAVYYCAVQVRPNSGGTRIHRCGYDYWGQGTQVTVSS	low polyreactivity
QVQLVESGGGLVQAGGSLRLSCASSGSTFRLYAMGWYRQAPGKERELVATISTSGGRTYYADSVKGRLTISRDNAKNTVYLQMNSLKPEDTAVYYCAAYRGTLLTAYDYWGQGTQVTVSS	low polyreactivity
QVQLVESGGGLVQAGGSLRLSCASSGSTFRRNAMGWYRQAPGKERELVAAITWRGTSTYYADSVKGRFTISRDNAKNTVYLQMNSLKPEDTAVYYCNAVYNPYTTYSLSAYDYWGQGTQVTVSS	high polyreactivity
QVQLVESGGGLVQAGGSLRLSCASSGSTFSYYAMGWYRQATGKERELVAGITTNGGRTFYADSVKGRFTISRDNAKNTVYLQMNSLKPEDTAVYYCNARHGRHRRTRSYYWGQGTQVTVSS	high polyreactivity
QVQLVESGGGLVQAGGSLRLSCASSGSTLEVNAMGWYRQAPGKERELVAAITSGCSTNYADSVKGRFTISRDNAKNTVYLQMNSLKPEDTAVYYCNALAYYGMDYWGQGTQVTVSS	low polyreactivity
QVQLVESGGGLVQAGGSLRLSCASSGYIFEKYAMGWYRQAPGKERELVAAITVTGASTYYADSVKGRFTISRDNAKNTVYLQMNSMNPEDTAVYYCAAKTLSVGYVDPDYGRDYWGQGTQVTVSS	low polyreactivity
QVQLVESGGGLVQAGGSLRLSCASSGYIIIIYAMGWYRQAPGKERELVAAINRRGGSTYYADSVKGRFTISRDNAKNTVYLQMNSLKREDTEVYYCNAYPYFSRGPHLYDYWGQGTQVTGSS	high polyreactivity
QVQLVESGGGLVQAGGSLRLSCASSVRTLAYNSRGCYRQATGKERELVASITSGGSTNYADSVKGRFTISRDNAKNTVYLQMNSLKPEDTAVYYCNKDGKYHRVLYDYWGQGTQVTVSS	low polyreactivity
QVQLVESGGGLVQAGGSLRLSCASTGRIFDRNAMGWYRQAPGKVRELVAAISRRGGSTYYADSVKGRFTISRDNAKNNVYLQMNILKPEDTAVYYCNSGYSTRLHDYWGQGTQVTVSS	high polyreactivity
QVQLVESGGGLVQAGGSLRLSCASYGYIFWSYAMGWYRQAPGKERELVAAISASGGRTYYADSVKGRFTISRDNAKNTVYLQMNSLKPEDTAVYYCNADPGNHAYWYYGEFYYYTYDYWGQGTQVTVSS	low polyreactivity
